Data set [1] has as its target T1, STARD1_(46-285)-S56A/L59P phosphorylated at Ser57 and Ser195 (human, UniProt P49675 46-285, S56A | L59P, phosphoserine at 57; phosphoserine at 195).
T1 sequence: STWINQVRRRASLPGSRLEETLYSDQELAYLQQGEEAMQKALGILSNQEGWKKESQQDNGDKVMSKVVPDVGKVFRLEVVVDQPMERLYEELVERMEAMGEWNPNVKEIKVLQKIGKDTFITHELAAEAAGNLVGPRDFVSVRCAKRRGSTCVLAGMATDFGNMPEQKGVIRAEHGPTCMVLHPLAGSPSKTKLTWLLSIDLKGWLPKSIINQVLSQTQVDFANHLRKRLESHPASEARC
Description: SPR. On the technique in general: SPR reads the build-up and loss of mass on a sensor chip optically.

For data set [2], the target named is T1, STARD1_(46-285)-S56A/L59P …. Description: SPR. The source holds these as a separate data set.
Data set [3] concerns the molecule itself. Description: crystal structure; phosphorylated chimeras of 14-3-3σΔC with the STARD1 peptide joined by a GSGSL linker; sitting-drop vapor diffusion; data at 100 K.
Data set [4] has as its target T2, wild-type full-length human 14-3-3γ (human, UniProt P61981 1-247).
T2 construct: 14-3-3γ, human, wild type, full length; Called untagged in the preparation of the heterodimer; also called untagged 14-3-3γ
T2 sequence (looked up): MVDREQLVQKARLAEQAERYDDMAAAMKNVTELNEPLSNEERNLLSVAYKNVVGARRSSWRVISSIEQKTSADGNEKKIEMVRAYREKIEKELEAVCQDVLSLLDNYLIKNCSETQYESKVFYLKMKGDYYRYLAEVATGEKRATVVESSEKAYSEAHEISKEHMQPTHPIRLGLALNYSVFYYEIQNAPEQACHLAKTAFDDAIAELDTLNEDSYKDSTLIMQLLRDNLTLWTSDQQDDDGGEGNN
Description: time-resolved fluorescence anisotropy; 1 µM 22NC, 10 µM pSTARD1, 100 µM 14-3-3γ; 20 mM Tris-HCl pH 7.5, 150 mM NaCl, 5 mM MgCl2; 25 °C; correlation time of the 22NC bound to STARD1. The settings on record: both partners purified.

B1: 14-3-3ε/γ heterodimer (His6-tagged 14-3-3ε with untagged 14-3-3γ) (complex)
chain 1: MDDREDLVYQAKLAEQAERYDEMVESMKKVAGMDVELTVEERNLLSVAYKNVIGARRASWRIISSIEQKEENKGGEDKLKMIREYRQMVETELKLICCDILDVLDKHLIPAANTGESKVFYYKMKGDYHRYLAEFATGNDRKEAAENSLVAYKAASDIAMTELPPTHPIRLGLALNFSVFYYEILNSPDRACRLAKAAFDDAIAELDTLSEESYKDSTLIMQLLRDNLTLWTS
chain 2: MVDREQLVQKARLAEQAERYDDMAAAMKNVTELNEPLSNEERNLLSVAYKNVVGARRSSWRVISSIEQKTSADGNEKKIEMVRAYREKIEKELEAVCQDVLSLLDNYLIKNCSETQYESKVFYLKMKGDYYRYLAEVATGEKRATVVESSEKAYSEAHEISKEHMQPTHPIRLGLALNYSVFYYEIQNAPEQACHLAKTAFDDAIAELDTLNEDSYKDSTLIMQLLRDNLTLWTSDQQDDDGGEGNN
Turning to B1, the off-rate constant (koff) – broadly, the first-order rate constant of dissociation – in data set [1] was found to be 0.0057 s⁻¹. In data set [2], the Ka was 67000 M⁻¹.

B2: His6-tagged 14-3-3ε (natural protein)
chain: MDDREDLVYQAKLAEQAERYDEMVESMKKVAGMDVELTVEERNLLSVAYKNVIGARRASWRIISSIEQKEENKGGEDKLKMIREYRQMVETELKLICCDILDVLDKHLIPAANTGESKVFYYKMKGDYHRYLAEFATGNDRKEAAENSLVAYKAASDIAMTELPPTHPIRLGLALNFSVFYYEILNSPDRACRLAKAAFDDAIAELDTLSEESYKDSTLIMQLLRDNLTLWTS
In turn, B2 came in with a koff in data set [1] of 0.0058 s⁻¹. In data set [2], this molecule gave a Ka of 77000 M⁻¹.

B3: chimeric 14-3-3σΔC protein with the STARD1 Ser195 phosphopeptide (other, human)
chain: MERASLIQKAKLAEQAERYEDMAAFMKGAVEKGEELSCEERNLLSVAYKNVVGGQRAAWRVLSSIEQKSNEEGSAAAGPEVREYREKVETELQGVCDTVLGLLDSHLIKEAGDAESRVFYLKMKGDYYRYLAEVATGDDKKRIIDSARSAYQEAMDISKKEMPPTNPIRLGLALNFSVFHYEIANSPEEAISLAKTTFDEAMADLHTLSEDSYKDSTLIMQLLRDNLTLWTGSGSLRRGSTCVLA
modifications: phosphoserine at Ser195 of the STARD1 peptide
notes: 14-3-3σ, human, without the C-terminal tail (14-3-3σΔC core); linker; steroidogenic acute regulatory protein STARD1 (StAR), human, stretch around Ser195; also called protein with fused Ser195 peptide; not shown: His, N-terminal, cleaved
Turning to B3, the binding result in data set [3] is “binds”.

B4: STARD1_(46-285)-S56A/L59P phosphorylated at Ser57 and Ser195 (domain or fragment, human, UniProt P49675 46-285, looked up)
chain: STWINQVRRRASLPGSRLEETLYSDQELAYLQQGEEAMQKALGILSNQEGWKKESQQDNGDKVMSKVVPDVGKVFRLEVVVDQPMERLYEELVERMEAMGEWNPNVKEIKVLQKIGKDTFITHELAAEAAGNLVGPRDFVSVRCAKRRGSTCVLAGMATDFGNMPEQKGVIRAEHGPTCMVLHPLAGSPSKTKLTWLLSIDLKGWLPKSIINQVLSQTQVDFANHLRKRLESHPASEARC
modifications: phosphoserine at 57; phosphoserine at 195
notes: steroidogenic acute regulatory protein STARD1 (StAR), human, residues 46-285 of the 285-residue pre-protein; also called pSTARD1; pSTARD1_(46-285)-S56A/L59P
With B4, the binding result in data set [4] is reported as “binds”.

The values are drawn from publication doi:10.1101/2020.04.14.040436, “Molecular basis for the recognition of steroidogenic acute regulatory protein by the 14-3-3 protein family” (bioRxiv, 2020).
